Experiments:
[1] = target: T1, human CD47, full length, on transfected cells (human, UniProt Q08722 19-323); experiment: FACS CHOK1-hCD47; Ab 8 nM
T1 construct: whole, on cells; also called CHOK1-hCD47
Description: (§1) The CHOK1-hCD47 stable cell lines and CHOK1-cCD47 stable cell lines were expanded to 90% confluence in a T-75 cell culture flask, the medium was exhausted, washed twice with HBSS buffer (Hanks balanced salt solution) (purchased from Invitrogen), and then treated and collected with enzyme-free cell dissociation solution (Versene solution: purchased from Life technology). The cells were washed twice with HBSS buffer. After counted, the cells were diluted with HBSS to 2×10⁶ cells per ml, added with 1% goat serum blocking solution, wherein the percentage was the mass percantage, incubated on ice for 30 minutes, and then washed twice with HBSS by centrifugation. […] The plate was washed 3 times with FACS buffer by centrifugation, added with 100 μl fixative solution [4% (v/v) Paraformaldehyde] per well to suspend the cells. 10 minutes later, it was washed twice with FACS buffer by centrifugation. The cells were suspended with 100 microliters of FACS buffer, FACS (FACS Calibur, purchased from BD) was used for detection and the results were analyzed.

[2] = target: T2, cynomolgus CD47, on CHOK1-cCD47 stable cell line (cynomolgus); experiment: FACS CHOK1-cCD47; Ab 8 nM
T2 construct: whole, on cells; check before use; also called CHOK1/cynoCD47; monkey-derived CD47
Description: as §1

[3] = target: T1, human CD47, full length, on transfected …; experiment: FACS CHOK1-hCD47; Ab 40 nM
[4] = target: T2, cynomolgus CD47, on CHOK1-cCD47 stable …; experiment: FACS CHOK1-cCD47; Ab 40 nM
Description: as §1

[5] = target: T1, human CD47, full length, on transfected …; experiment: FACS CHOK1-hCD47; Ab 1.6 nM
Description: as §1

[6] = target: T1, human CD47, full length, on transfected …; experiment: FACS CHOK1-hCD47; Ab 200 nM
Description: as §1

[7] = target: T2, cynomolgus CD47, on CHOK1-cCD47 stable …; experiment: FACS CHOK1-cCD47; Ab 1.6 nM
Description: as §1

[8] = target: T2, cynomolgus CD47, on CHOK1-cCD47 stable …; experiment: FACS CHOK1-cCD47; Ab 200 nM
Description: as §1

[9] = target: T1, human CD47, full length, on transfected …; experiment: FACS CHOK1-hCD47; Ab 0.32 nM
Description: as §1

[10] = target: T2, cynomolgus CD47, on CHOK1-cCD47 stable …; experiment: FACS CHOK1-cCD47; Ab 0.32 nM
Description: as §1

[11] = target: T1, human CD47, full length, on transfected …; experiment: FACS CHOK1-hCD47; Ab 0.064 nM
[12] = target: T2, cynomolgus CD47, on CHOK1-cCD47 stable …; experiment: FACS CHOK1-cCD47; Ab 0.064 nM
[13] = target: T1, human CD47, full length, on transfected …; experiment: FACS CHOK1-hCD47; Ab 0.0128 nM
Description: as §1

[14] = target: T2, cynomolgus CD47, on CHOK1-cCD47 stable …; experiment: FACS CHOK1-cCD47; Ab 0.0128 nM
Description: as §1

[15] = target: T3, His-tagged CD47 recombinant protein, CD47-His (human, UniProt Q08722 19-141, limits assumed); experiment: ELISA on coated CD47-His; Ab 0.004 nM
T3 construct: it is not restated for CD47-His; also called human CD47-His protein; antigen CD47-His; not shown: His tag

[16] = target: T3, His-tagged CD47 recombinant protein, …; experiment: ELISA on coated CD47-His; Ab 0.021 nM
Description: (§2) The plate was sealed with plastic film and incubated at 4° C. overnight. The plate was washed twice with plate washing solution [PBS+0.01% (v/v) Tween20] the next day, and blocking solution [PBS+0.01% (v/v) Tween20 +1% (w/w) BSA] was added to block it at room temperature for 2 hours. […] After incubation at 37° C. for 2 hours, the plates were washed three times with plate washing solution [PBS+0.01% (v/v) Tween 20]. HRP (horseradish peroxidase) labeled secondary antibody (purchased from Sigma) was added, incubated at 37° C. for 2 hours, and then washed three times with plate washing solution [PBS+0.01% (v/v) Tween 20]. 1000 of TMB substrate was added to each well. After incubated at room temperature for 30 minutes, the plate was added with 100 μl of stop solution (1.0N HCl) to each well.

[17] = target: T3, His-tagged CD47 recombinant protein, …; experiment: ELISA on coated CD47-His; Ab 0.107 nM
Description: as §2

[18] = target: T3, His-tagged CD47 recombinant protein, …; experiment: ELISA on coated CD47-His; Ab 0.533 nM
[19] = target: T3, His-tagged CD47 recombinant protein, …; experiment: ELISA on coated CD47-His; Ab 2.667 nM
Description: as §2

[20] = target: T3, His-tagged CD47 recombinant protein, …; experiment: ELISA on coated CD47-His; Ab 13.333 nM
[21] = target: T3, His-tagged CD47 recombinant protein, …; experiment: ELISA on coated CD47-His; Ab 66.667 nM
Description: as §2

[22] = target: T1, human CD47, full length, on transfected …; experiment: FACS CHOK1-hCD47; Ab 0 nM (background)
Description: as §1

[23] = target: T2, cynomolgus CD47, on CHOK1-cCD47 stable …; experiment: FACS CHOK1-cCD47; Ab 0 nM (background)
[24] = target: T3, His-tagged CD47 recombinant protein, …; experiment: ELISA on coated CD47-His; Ab 0 nM (background)
Description: as §2

[25] = target: T4, biotin-labeled CD47 extracellular domain protein (CD47-ECD) (UniProt Q08722 19-139, limits assumed, biotin-labeled (sites not given)); experiment: blocking ELISA, biotin-CD47-ECD on coated SIRPα-hFc; Ab 0 nM
T4 construct: extracellular domain; also called CD47 protein

[26] = target: T4, biotin-labeled CD47 extracellular …; experiment: blocking ELISA, biotin-CD47-ECD on coated SIRPα-hFc; Ab 8 nM
Description: (§3) The plate was sealed with plastic film and incubated at 4° C. overnight. The plate was washed twice with plate washing solution [PBS+0.01% (v/v) Tween20] on the next day, and blocking solution [PBS+0.01% (v/v) Tween20 +1% (w/w) BSA] was added to block it at room temperature for 2 hours. […] After incubation at 37° C. for 2 hours, the plate was washed three times with the plate washing solution [PBS+0.01% (v/v) Tween 20]. HRP (horseradish peroxidase) labeled avidin diluent (purchased from Sigma) was added as 100 microliters per well, and after the plate was incubated for 2 hours at 37° C., it was washed 3 times with washing solution [PBS+0.01% (v/v) Tween 20]. 100 μl of TMB substrate was added to each well. After incubated at room temperature for 30 minutes, the plate was added with 100 μl of stop solution (1.0N HCl) to each well.

[27] = target: T4, biotin-labeled CD47 extracellular …; experiment: blocking ELISA, biotin-CD47-ECD on coated SIRPα-hFc; Ab 40 nM
[28] = target: T4, biotin-labeled CD47 extracellular …; experiment: blocking ELISA, biotin-CD47-ECD on coated SIRPα-hFc; Ab 1.6 nM
Description: as §3

[29] = target: T4, biotin-labeled CD47 extracellular …; experiment: blocking ELISA, biotin-CD47-ECD on coated SIRPα-hFc; Ab 200 nM
Description: as §3

[30] = target: T4, biotin-labeled CD47 extracellular …; experiment: blocking ELISA, biotin-CD47-ECD on coated SIRPα-hFc; Ab 0.32 nM
Description: as §3

[31] = target: T4, biotin-labeled CD47 extracellular …; experiment: blocking ELISA, biotin-CD47-ECD on coated SIRPα-hFc; Ab 0.064 nM
Description: as §3

[32] = target: T4, biotin-labeled CD47 extracellular …; experiment: blocking ELISA, biotin-CD47-ECD on coated SIRPα-hFc; Ab 0.0128 nM
Description: as §3

| Binder | mean fluorescence intensity [1] | mean fluorescence intensity [2] | mean fluorescence intensity [3] | mean fluorescence intensity [4] | mean fluorescence intensity [5] | mean fluorescence intensity [6] | mean fluorescence intensity [7] | mean fluorescence intensity [8] | mean fluorescence intensity [9] | mean fluorescence intensity [10] | mean fluorescence intensity [11] | mean fluorescence intensity [12] | mean fluorescence intensity [13] | mean fluorescence intensity [14] | OD450 nm [15] | OD450 nm [16] | OD450 nm [17] | OD450 nm [18] | OD450 nm [19] | OD450 nm [20] | also measured |
| --- | --- | --- | --- | --- | --- | --- | --- | --- | --- | --- | --- | --- | --- | --- | --- | --- | --- | --- | --- | --- | --- |
| 20H4G5 (antibody, V domains shown, Murine hybridoma antibody purified on protein G) VH: QVQLQQPGAELVRPGSSVRLSCVTSGYTFTSHWMHWVKQGPIKGLEWIGNIDPSDSETHYNQKFKDKATLTVDKSSSTAYMQLSRLTSDDSAVYYCARWRHLGIGAMDYWGQGTSVIVSS VL: DVQITQSPSYLAASPGETITINCRASKNISKFLAWYQAKPGKSNNLLIYSGSTLQSGIPSRFSGSGSGTDFTLTISRLEPEDFAMYYCQQHNEYPWTFGGGTKLEIK | 8470 | 16400 | 9520 | 13400 | 6160 | 6550 | 9450 | 16500 | 2980 | 3310 | 759 | 998 | 233 | 343 | 0.31 | 1.15 | 2.61 | 3.02 | 3.01 | 2.94 | OD450 nm [21]: 2.9; mean fluorescence intensity [22]: 23.1; mean fluorescence intensity [23]: 81.2; OD450 nm [24]: 0.05; OD450 nm of CD47 bound to SIRPα [25]: 2.9; OD450 nm of CD47 bound to SIRPα [26]: 0.08; OD450 nm of CD47 bound to SIRPα [27]: 0.07; OD450 nm of CD47 bound to SIRPα [28]: 0.16; OD450 nm of CD47 bound to SIRPα [29]: 0.07; OD450 nm of CD47 bound to SIRPα [30]: 0.68; OD450 nm of CD47 bound to SIRPα [31]: 2.29; OD450 nm of CD47 bound to SIRPα [32]: 2.81 |
| 51E2F11 (antibody, V domains shown, Murine hybridoma antibody purified on protein G) VH: EVQLQQSGAELVKPGASVKLSCTASGFNIKDHYIHWMNQRTEQGLEWIGRIDPDDGETRYAPKFRGKATLTADTSSNTAYLQFSSLTSEDTAVYHCTRATTITRDWYFDVWGTGTTVTVSS VL: DIVMTQSQKFMSTSVGDRVSITCKASQNVRTSVAWYQQKPGQSPKALIYLASNRHTGIPDRFTGSGSGTDFTLTIRNVQSEDLADYFCLQHWDYPLTFGAGTKLELK | 12700 | 10600 | 15900 | 13300 | 6460 | 14600 | 7190 | 9460 | 2000 | 2880 | 541 | 288 | 174 | 245 | 0.16 | 0.53 | 1.83 | 2.95 | 3 | 2.97 | OD450 nm [21]: 2.95; mean fluorescence intensity [22]: 22.6; mean fluorescence intensity [23]: 72.4; OD450 nm [24]: 0.05; OD450 nm of CD47 bound to SIRPα [25]: 2.95; OD450 nm of CD47 bound to SIRPα [26]: 0.1; OD450 nm of CD47 bound to SIRPα [27]: 0.08; OD450 nm of CD47 bound to SIRPα [28]: 0.32; OD450 nm of CD47 bound to SIRPα [29]: 0.07; OD450 nm of CD47 bound to SIRPα [30]: 1.57; OD450 nm of CD47 bound to SIRPα [31]: 2.77; OD450 nm of CD47 bound to SIRPα [32]: 2.94 |

Source: patent US20220017615A1 (SHANGHAI PHARMAEXPLORER, published 2022)
